Results from patent US20260167699A1 (Chugai, published 2026).

B1: GpH7-A5/GpH7-B3 variant E333_13S/GpL16-k0 (antibody, human IgG1, kappa)
heavy 1: not shown
heavy 2: not shown
light: DIVMTQSPLSLPVTPGEPASISCQASESLVHSNRNTYLHWYLQKPGQSPQLLIYKVSNRFSGVPDRFSGSGSGTDFTLKISRVEAEDVGVYYCSQNTHVPPTFGQGTKVEIERTVAAPSVFIFPPSDEQLKSGTASVVCLLNNFYPREAKVQWKVDNALQSGNSQESVTEQDSKDSTYSLSSTLTLSKADYEKHKVYACEVTHQGLSSPVTKSFNRGEC
notes: copies: 1 + 1 + 2
B2: GpH7-A5/GpH7-B3 variant G237_03V/GpL16-k0 (antibody, human IgG1, kappa)
heavy 1: not shown
heavy 2: not shown
light: B1 light
notes: copies: 1 + 1 + 2
B3: GpH7-A5/GpH7-B3 variant G236_10E/GpL16-k0 (antibody, human IgG1, kappa)
heavy 1: not shown
heavy 2: not shown
light: B1 light
notes: copies: 1 + 1 + 2
B4: GpH7-A5/GpH7-B3 variant H268_19Q/GpL16-k0 (antibody, human IgG1, kappa)
heavy 1: not shown
heavy 2: not shown
light: B1 light
notes: copies: 1 + 1 + 2
B5: GpH7-A5/GpH7-B3 variant G237_14T/GpL16-k0 (antibody, human IgG1, kappa)
heavy 1: not shown
heavy 2: not shown
light: B1 light
notes: copies: 1 + 1 + 2
B6: GpH7-A5/GpH7-B3 variant G236_02A/GpL16-k0 (antibody, human IgG1, kappa)
heavy 1: not shown
heavy 2: not shown
light: B1 light
notes: copies: 1 + 1 + 2
B7: GpH7-A5/GpH7-B3 variant E333_19Q/GpL16-k0 (antibody, human IgG1, kappa)
heavy 1: not shown
heavy 2: not shown
light: B1 light
notes: copies: 1 + 1 + 2
B8: GpH7-A5/GpH7-B3 variant I336_08L/GpL16-k0 (antibody, human IgG1, kappa)
heavy 1: not shown
heavy 2: not shown
light: B1 light
notes: copies: 1 + 1 + 2
B9: GpH7-A5/GpH7-B3 variant I332_09D/GpL16-k0 (antibody, human IgG1, kappa)
heavy 1: not shown
heavy 2: not shown
light: B1 light
notes: copies: 1 + 1 + 2
B10: GpH7-A5/GpH7-B3 variant I332_16H/GpL16-k0 (antibody, human IgG1, kappa)
heavy 1: not shown
heavy 2: not shown
light: B1 light
notes: copies: 1 + 1 + 2
B11: GpH7-A5/GpH7-B3 variant G236_13S/GpL16-k0 (antibody, human IgG1, kappa)
heavy 1: not shown
heavy 2: not shown
light: B1 light
notes: copies: 1 + 1 + 2
B12: GpH7-A5/GpH7-B3 variant H268_09D/GpL16-k0 (antibody, human IgG1, kappa)
heavy 1: not shown
heavy 2: not shown
light: B1 light
notes: copies: 1 + 1 + 2
B13: GpH7-A5/GpH7-B3 variant H268_15Y/GpL16-k0 (antibody, human IgG1, kappa)
heavy 1: not shown
heavy 2: not shown
light: B1 light
notes: copies: 1 + 1 + 2
B14: GpH7-A5/GpH7-B3 variant H268_07I/GpL16-k0 (antibody, human IgG1, kappa)
heavy 1: not shown
heavy 2: not shown
light: B1 light
notes: copies: 1 + 1 + 2
B15: GpH7-A5/GpH7-B3 variant I336_10E/GpL16-k0 (antibody, human IgG1, kappa)
heavy 1: not shown
heavy 2: not shown
light: B1 light
notes: copies: 1 + 1 + 2
B16: GpH7-A5/GpH7-B3 variant I336_04F/GpL16-k0 (antibody, human IgG1, kappa)
heavy 1: not shown
heavy 2: not shown
light: B1 light
notes: copies: 1 + 1 + 2
B17: GpH7-A5/GpH7-B3 variant I332_14T/GpL16-k0 (antibody, human IgG1, kappa)
heavy 1: not shown
heavy 2: not shown
light: B1 light
notes: copies: 1 + 1 + 2
B18: GpH7-A5/GpH7-B3 variant E333_16H/GpL16-k0 (antibody, human IgG1, kappa)
heavy 1: not shown
heavy 2: not shown
light: B1 light
notes: copies: 1 + 1 + 2
B19: GpH7-A5/GpH7-B3 variant I332_10E/GpL16-k0 (antibody, human IgG1, kappa)
heavy 1: not shown
heavy 2: not shown
light: B1 light
notes: copies: 1 + 1 + 2
B20: GpH7-A5/GpH7-B3 variant E333_15Y/GpL16-k0 (antibody, human IgG1, kappa)
heavy 1: not shown
heavy 2: not shown
light: B1 light
notes: copies: 1 + 1 + 2
B21: GpH7-A5/GpH7-B3 variant H268_11K/GpL16-k0 (antibody, human IgG1, kappa)
heavy 1: not shown
heavy 2: not shown
light: B1 light
notes: copies: 1 + 1 + 2
B22: GpH7-A5/GpH7-B3 variant H268_14T/GpL16-k0 (antibody, human IgG1, kappa)
heavy 1: not shown
heavy 2: not shown
light: B1 light
notes: copies: 1 + 1 + 2
B23: GpH7-A5/GpH7-B3 variant G236_09D/GpL16-k0 (antibody, human IgG1, kappa)
heavy 1: not shown
heavy 2: not shown
light: B1 light
notes: copies: 1 + 1 + 2
B24: GpH7-A5/GpH7-B3 variant I332_03V/GpL16-k0 (antibody, human IgG1, kappa)
heavy 1: not shown
heavy 2: not shown
light: B1 light
notes: copies: 1 + 1 + 2
B25: GpH7-A5/GpH7-B3 variant I332_06M/GpL16-k0 (antibody, human IgG1, kappa)
heavy 1: not shown
heavy 2: not shown
light: B1 light
notes: copies: 1 + 1 + 2
B26: GpH7-A5/GpH7-B3 variant H268_20W/GpL16-k0 (antibody, human IgG1, kappa)
heavy 1: not shown
heavy 2: not shown
light: B1 light
notes: copies: 1 + 1 + 2
B27: GpH7-A5/GpH7-B3 variant I336_09D/GpL16-k0 (antibody, human IgG1, kappa)
heavy 1: not shown
heavy 2: not shown
light: B1 light
notes: copies: 1 + 1 + 2
B28: GpH7-A5/GpH7-B3 variant G236_07I/GpL16-k0 (antibody, human IgG1, kappa)
heavy 1: not shown
heavy 2: not shown
light: B1 light
notes: copies: 1 + 1 + 2
B29: GpH7-A5/GpH7-B3 variant G236_04F/GpL16-k0 (antibody, human IgG1, kappa)
heavy 1: not shown
heavy 2: not shown
light: B1 light
notes: copies: 1 + 1 + 2
B30: GpH7-A5/GpH7-B3 variant I336_02A/GpL16-k0 (antibody, human IgG1, kappa)
heavy 1: not shown
heavy 2: not shown
light: B1 light
notes: copies: 1 + 1 + 2

molecular target: T1, FcγRIIIa (human, UniProt P08637 17-208); assay: SPR (Biacore);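 also: antibody variants captured on an SPR sensor chip, with FcγRIIIa passed over as analyte in HBS-EP+ buffer at 25 °C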
T1 construct: extracellular domain; also called 3a; FcγRIIIa extracellular domain
T1 sequence (P08637 other isoform, or with tags, fused parts or gaps): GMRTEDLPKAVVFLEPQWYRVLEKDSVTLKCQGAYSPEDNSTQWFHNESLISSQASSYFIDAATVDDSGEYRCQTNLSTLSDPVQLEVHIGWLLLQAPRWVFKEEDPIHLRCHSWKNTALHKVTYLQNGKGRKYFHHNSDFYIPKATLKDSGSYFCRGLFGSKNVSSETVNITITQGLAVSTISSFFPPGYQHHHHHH
Procedure: The antibody of interest was analyzed for its interaction with FcγR using a BiaCore™ T100, BiaCore™ A100, or BiaCore™ 4000 surface plasmon resonance system (GE Healthcare Japan Corp.). The running buffer used was HBS-EP+ (GE Healthcare Japan Corp.). The assay temperature was set to 25° C. The sensor chips used were: a chip prepared by immobilizing antigenic peptides onto Series S Sensor Chip CM5 (GE Healthcare Japan Corp.) by the amine coupling method; a chip prepared by immobilizing antigenic peptides biotinylated in advance onto Series S Sensor Chip SA (certified) (GE Healthcare Japan Corp.) through their interaction; a chip prepared by immobilizing protein L (ACTIGEN, BioVision, Inc.) onto Series S Sensor Chip CM5 (GE Healthcare Japan Corp.); and a chip prepared by immobilizing protein A/G (Thermo Fisher Scientific K.K.) onto Series S Sensor Chip CM5 (GE Healthcare Japan Corp.). The antibody of interest was captured onto any of these chips and allowed to interact with FcγR diluted with a running buffer. The antibody captured on the chip was washed off through the reaction of 10 mM glycine-HCl (pH 1.5) to regenerate the chip, which was repetitively used.

Row | He/Con 3a | Binder
1 | 106 % of GpH7-A5/GpH7-B3/GpL16-k0 | B1
2 | 51.3 % of GpH7-A5/GpH7-B3/GpL16-k0 | B2
3 | 65.8 % of GpH7-A5/GpH7-B3/GpL16-k0 | B3
4 | 113 % of GpH7-A5/GpH7-B3/GpL16-k0 | B4
5 | 50.5 % of GpH7-A5/GpH7-B3/GpL16-k0 | B5
6 | 77 % of GpH7-A5/GpH7-B3/GpL16-k0 | B6
7 | 101 % of GpH7-A5/GpH7-B3/GpL16-k0 | B7
8 | 102 % of GpH7-A5/GpH7-B3/GpL16-k0 | B8
9 | 189 % of GpH7-A5/GpH7-B3/GpL16-k0 | B9
10 | 89 % of GpH7-A5/GpH7-B3/GpL16-k0 | B10
11 | 60.3 % of GpH7-A5/GpH7-B3/GpL16-k0 | B11
12 | 195 % of GpH7-A5/GpH7-B3/GpL16-k0 | B12
13 | 96.5 % of GpH7-A5/GpH7-B3/GpL16-k0 | B13
14 | 84.1 % of GpH7-A5/GpH7-B3/GpL16-k0 | B14
15 | 114 % of GpH7-A5/GpH7-B3/GpL16-k0 | B15
16 | 93.2 % of GpH7-A5/GpH7-B3/GpL16-k0 | B16
17 | 110 % of GpH7-A5/GpH7-B3/GpL16-k0 | B17
18 | 106 % of GpH7-A5/GpH7-B3/GpL16-k0 | B18
19 | 213 % of GpH7-A5/GpH7-B3/GpL16-k0 | B19
20 | 101 % of GpH7-A5/GpH7-B3/GpL16-k0 | B20
21 | 81.6 % of GpH7-A5/GpH7-B3/GpL16-k0 | B21
22 | 90.3 % of GpH7-A5/GpH7-B3/GpL16-k0 | B22
23 | 66.2 % of GpH7-A5/GpH7-B3/GpL16-k0 | B23
24 | 85.2 % of GpH7-A5/GpH7-B3/GpL16-k0 | B24
25 | 92.5 % of GpH7-A5/GpH7-B3/GpL16-k0 | B25
26 | 82 % of GpH7-A5/GpH7-B3/GpL16-k0 | B26
27 | 102 % of GpH7-A5/GpH7-B3/GpL16-k0 | B27
28 | 55.6 % of GpH7-A5/GpH7-B3/GpL16-k0 | B28
29 | 81 % of GpH7-A5/GpH7-B3/GpL16-k0 | B29
30 | 106 % of GpH7-A5/GpH7-B3/GpL16-k0 | B30
